Measured values reported in patent US20100080803A1.
Where no end group is shown, it is not given here.

Target: a seven trans-membrane receptor
Experiment: cell-based or functional assay

For AAHLPAEFTPAVHASLDKF-NH2 [2.022 kDa peptide, amino acids 110-128 of α-chain hemoglobin (SEQ ID No: 9)], the half-saturation effect of the peptide on the decrease in cell area of A7R5 cells with 5 nM bradykinin was 9.35 µM and the increase of rat uterine contraction in the presence of oxytocin (isometric tissue bath, 100 µM peptide) was 30%.
